# Paper PMC9846250
# How the values were obtained:
# [1] = target: paramyosin from giant squid (Dosidicus gigas) (giant squid (Dosidicus gigas)); assay: static light scattering; Debye plot, 25°C, 90°, paramyosin 0.01-0.1 mg/ml in PBS pH 7.5 with 0.15, 0.5 and 1.0 M KCl; apparent Mw; monomers to dimer
# [2] = target: paramyosin from giant squid (Dosidicus gigas) (giant squid (Dosidicus gigas)); assay: dynamic light scattering; 25°C, 90°, purified paramyosin in PBS pH 7.5 with 0.15, 0.5 and 1 M KCl; two populations by hydrodynamic radius (dimer, aggregates); number fractions calculated from the scattered intensities
# [3] = as above; details: other: dynamic light scattering
stoichiometry N [1],percent of molecules in dimeric form [2] [%],Substance,dimers per aggregate [3]
2,> 99,paramyosin from giant squid (Dosidicus gigas) (natural protein),–
–,–,paramyosin from giant squid (Dosidicus gigas),there are ca. 5 dimer paramyosin particles inside an aggregate
